Data as given in patent publication US20230226096A1 (Orna Therapeutics, Inc., priority 2020, published 2023).

B1: Miniopterus schreibersii picornavirus 1 (nucleic acid)
DNA: GTTGTCGACCCGTTGCTTGGTTTAAGCATGAGGTGGATTCCCCCGATTATGTCTACCCGTTACTATGGCGGGCGGTCGTTTCAGGGTGTTTCTACTGAGGACTGCACCAAGTCTTTATCTTTTATTCTCAGATCTCCGGCTGTTTGACGCTTGTAGGACAGCAGGACTATTTTCTCTTAATCTTTTTCTACCCACTAGGGTCCTATCCTAGTGGAGGGAGGGTGCCACCCCTTCTCTCTTTAGAGAGTGCGCCTGGCGGTCTTTCCGTCTCTGGAAAAAGGAGCACATGGCATGCTACAATTGGCACAAGAAAACAAGCTTTGCGGATTCTTTCTTTGTACTAGAGGAAGCTGTAGCGACCCTGTATGGCGAGCGGACTCCCCTCTCGGCGACGAGAGCCTCTCGGGCCAAAAGCCAAGTGTTAATAGCACCCATACAGGCGGCAGTACCCCACTGCCCTTTCTCAACATACAATGACTGATGAACCACTGTTGGTTTTTCTGACACCTTTGTAGTAGGATTCCAAGGAATGTCCTGAAGGTACCCTGTTAGCTTACGCGCAGGATCTGATCAGGAGTCTCTTTACAGTGCTGTACACTGTGCAAGGGATTAAAAATTGTTTGAGGAATCCCCGAGATAGTGGTCTATCTCTTCCTATTTTGTTTTACAGACACG
B2: Lesavirus 1 (nucleic acid)
DNA: GTAACTAATAAGCAAGTTTTACTGCCTGCAAACTGCTTCAATGGGACCACCGCTTCGGCGACCCCTTTGTTGAGTTTGTATGTTTTTAAGTAATCTTTGCAACCATACGATTATTTTAGCCGCCTCTCTATAATGATCTTGTTATAGTGGGACGTGAAACATTGGTTTTTCTCACACACGTCCGGTCACCCGGGCGTGTGTTCTTCCGTAAGTCCTATCCACATACCATCGTGGGTAGGCCAGCATGTTTGCACAGGCTGTGACAGTGTGGGTGGGCTTTCCACCTCTCAACAACACACTGAATTGCAATGCACTCACGGAGGAAATGACAATTTGGTTATAGTTTTGAACTGTGCTAGTAATTTCTTTCACATTAAGCCATGTTGCCTGCGGAATCACATGTGGTAACACATGCCTCAGGGCCCAAAAGGCACGGGTTAGCAGCCCCTTCATGGTGTGTTAGAAGTGAAAACACATAGTATGAGCTATAATATCTTTGTTGTCTTCTCTGTAGTGTACCCCGCCAAATGTAAGGATGCCCAGCAGGTACCCATTTTATGGATCTGAGCTGGGGATTGATAGTGTATCTATAAATGCACTGATCAATTTAAAAAGCGTCTAAGTTTGGCACAAACACTGGGGACAGTGTTTTTCCTTTATTCTTTTATTTGATTA
B3: Linda virus (nucleic acid)
DNA: GTATAGCAGCAGTAGCTCAAGGCTGCTATACGATTGGACATACCAAATTCCAATTGGTGTTAGGGACCACCTAGGTGAAGGCCGACGACAGGTAGCCATTCCTGTTAGTAGGACGAACCGTTATGGTGGACTGGTTGCTCAGGTGAGCAGGCTGCAATGCGTAAGTGGTGAGTACACCACAGCCGTCAAAGGTGCCACTGGTAAGGATCACCCACTGGCGATGCCTTGTGGACGGGGGCGTGCCCAACGCAATGTTAGCGGTGGCGGGGGCTGCCATCGTGAAAGCTAGGTCTTGATGGACCTTGTTGCCTGTACAGTCTGATAGGATGCCGGCGGATGCCCTGTGACAGCCAGTATAAAGAATATCCGTTGTGATTGCAC
B4: Mumps virus (nucleic acid, listed as Mumps orthorubulavirus)
DNA: ACCAAGGGGAAAATGAAGATGGGATGTTGGTAGAACAAATAGTGTAAGAAACAGTAAGCCCGGAAGTGGTGTTTTGCGATTTCGAGGCCGGGCTCGATCCTCACCTTTCATTGTCGATAGGGGACATTTTGACACTACCTGGAAA
B5: Megirivirus C (nucleic acid)
DNA: TTCCCGACCGGTCTGGCAAACCGGACGGTTATCCTGGTTAGATGTCTGATGGTTGCTGGAACGTGGTGGCTACTGCTGCCACCTTCTGGCTTCCTTTAATGGGCATCTAGCTGGGTTCTTTGCCACAATCCATCTTACTCTCTTACCCATTTTCTATTACCCAGACTTGTTGTTAACTGGTAAAGTTGACCTACTGGCTTCGTTTTGAGACTATTCTGGTGTTGGTGGACACTCTTTCCACAAGTAGATTGTATGGAGTTCATGCTCGTTTTGAACCGGGAATGGCACAACCCGTAGTAGGATCTTGCCTCTGCCATACTAATCTGCGCCTGTTGCTTTTAGACTATGGGCTGCTAAGGATGACATTGGAACCCCTTTTTGGATATTCCATGTCAAGTCAACTGTTTCATCTGGTGTACGCTGGAAATCCTTGTTCCGAGGTCTTGTCTGGAGGTGGTGCTGAAATATTGCAAGCCACAGGCAGTTCCTTGGACTTGGTGCCGCTATCAGATGCTACACCCTCTATGGGCAAATGTTGAACCTTAGTGGACGCGTGAGATGGGAATCCACGCCGGCCATAGACTGGCTGATAAGCTCGCGGCTGATCGAGTTGCAACAGTAATCAGTTGATTTGCCACT
B6: Mouse Mosavirus (nucleic acid, listed as Mosavirus sp.)
DNA: GAAGTTGATCATGAACTTGGTTATTGGTGGAACGCACATGAACTCCCAACAATGATCTTGAAGACACAGCGTGGTAACAATTACCATGCCCTTGTGGCTGCCCAAGACATTGATGGCTATTGGGTGATTTATGATGAC
B7: Pestivirus strain Aydin (nucleic acid, listed as Pestivirus sp.)
DNA: GTATACGAGATTAGCTCATACTCGTGTACAAATTGGACGTAGCAAATTTAAAAATTCGGATAGGGTCCCCATCCAGCGACGGCCGAACGGGGTTAACCATACCTCTAGTAGGACTAGCAGACGGATGGACTAGCCACAGTGGTGAGCTCCCTGGGAGGTCTAAGTTCTGAGTACAGAACAGTCGTCAGTAGTTCAACGCTGGTAAACCCCAGCCTTGAGATGCTACGTGGACGAGGGCATGCCCAAGACACACCTTAACCTGGACGGGGGTCGTCCAGGTGAAAGTACCCATCTTTGGGTGCTGGGAGTACAGCCTGATAGGGCGCTGCAGAGGCCCACTGACAGGCTAGTATAAAAATCTCTGCTGTACATGGAAC
B8: Lesavirus 2 (nucleic acid)
DNA: TCTTTCTTTATTTTCTTATGTAACTCTTCTTTTTAAGTTTTATTTTGCCTACTTGTGAGCTTATGCGGGACCACTGTCTTAGACAACCCCACATTTGTCATGAGTAAGTACACGCAACCATTACGATTACTTTTTAACCGTCTGACCTTTTGATAACAACTGAAGTTAGGCGTGAAACATGCATTTATACCAAAGTAGCCCCGCATTTCCCCACTACGGTGGGGGGGCTACCCTACTGGCTTTGGAACTGTAGCCATTATGTGTTGCCTGGCTTTCAGGATCTCACAACACAACAGTTCTCTCACAATGGAATATGGGTGAGATTGCAGTGACATGAACAAGTATCTAGTAGTACATAGACTCAAGCCTAGTTGCCTGCGGAACAACATGTGGTAACACATGCCCCAGGGTCCAAAAGACAAGGGTTAACAGCCCCTTCTAGGTGTCTGTGTGTGAAGAATACTTTAGTAGTGTTGTTATGATCTCACCTGTTAGTACAGAATGAGTATGGCTTGGTGAAGGATGTCCTACAGGTACCCATTATATGGATCTGAGTAGGAGACCACTAGTGGTGGCTTTACCGCCAGGTGAGTGGTTTAAAAAGCGTCTAGCCAAGCCAACAGCACTAGGGATAGTGCTTTCTATATTTTATATTTTCAGTGTATATGGTGACAA
B9: Phopivirus strain NewEngland (nucleic acid)
DNA: GGGAGTAAACCTCACCACCGTTTGCCGTGGTTTACGGCTACCTATTTTTGGATGTAAATATTAATTCCTGCAGGTTCAGGTCTCTTGAATTATGTCCACGCTAGTGGCACTCTCTTACCCATAAGTGACGCCTTAGCGGAACCTTTCTACACTTGATGTGGTTAGGGGTTACATTATTTCCCTGGGCCTTCTTTGGCCCTTTTTCCCCTGCACTATCATTCTTTCTTCCGGGCTCTCAGCATGCCAATGTTCCGACCGGTGCGCCCGCCGGGGTTAACTCCATGGTTAGCATGGAGCTGTAGGCCCTAAAAGTGCTGACACTGGAACTGGACTATTGAAGCATACACTGTTAACTGAAACATGTAACTCCAATCGATCTTCTACAAGGGGTAGGCTACGGGTGAAACCCCTTAGGTTAATACTCATATTGAGAGATACTTCTGATAGGTTAAGGTTGCTGGATAATGGTGAGTTTAACGACAAAAACCATTCAACAGCTGTGGGCCAACCTCATCAGGTAGATGCTTTTGGAGCCAAGTGCGTAGGGGTGTGTGTGGAAATGCTTCAGTGGAAGGTGCCCTCCCGAAAGGTCGTAGGGGTAATCAGGGGCAGTTAGGTTTCCACAATTACAATTTGAA
B10: Kagoshima-2-24-KoV (nucleic acid, listed as Kobuvirus sp.)
DNA: TATAGTTTGCCTGTTTCTCGCACCGTTACCGCTCGTTCGGGAATGTGAAACTGGCACCCCTCCTCTCCCCTACCACCCTTTCTCCTTCGCCCCCATTCATAATTTACAACGCCGCACACAGCGGCGGCCGCCAAGGGCTAGCCTGGCGGTTATAAAAGGAACCTGGGTCTTTCCCTCTTCAAGCCAAAAGGTAGGTTCCCTGTGTCCCTGAATGCTCGGTGAGGAATGCTGCACCGTAACGCTTTGTGAAGTGTTTGCAAGTTCTGGCCCGGCAAGCCTACAGAGTGCTGTGATCCGCTGCGGACGCCATCCTGGTAACAGGACCCCCAGTGTGCGCAACAGTATGTTCAGACTTCGGTTTGTTCACTTGCTTTCATGGACCATTGCGCGAAAGTGCGTGCGCCATATCCCTGTACTTCAGGTGTGCTTCTCTGGACCCTAGGAATGCTGCGAAGGTACCCCGTTTCGGCGGGATCTGATCGCAGGCTAATTGTCTATGGGTTCAGTTTCCTTTTTCTTTACTCCACAATTGACTGCTTAACTGACTCTGGATCTTGTGCTTCCACTGCTCTTTCTGCTCTCAAAACGGCTTCACTTACCAACTCTCACCTTTCGACCAACACCATTTACACACTAACTTTTTTCGACTCTTCTGACTCCTGGCTTGGTGAAGAC
B11: Jingmen picorna-like virus (nucleic acid)
DNA: TGTGTTTTTGTCAAGATAATTGTTCTGTGATTAACAGTGATTGTGGTTCGTGTAATGCGACGCAGTCAAATGCTAGTTTTGATGAAGTGTATGAGAGAGTGGAAAACTTATCTCATAAGAAGATTGAAGAGTGTGTAGATCAGGCTATTGATCGAGCTTCTAAGCTTCGTGATTACAAGCTTAATGTTCACAATGGCTCCCGACGGGAATCATCTGATCCTCTCTTTATTTCGCCCCATTCGTTGTTATCGCTTGGGGTATCTAAGTTTGTTGCGTTTGAGCAGCATCACAGTTTCGCTTCAGTTGAGTCTCTGAAGTTGCTTGCTCTGTCT

What follows are molecules tested on HEK293 cells. Settings: luminescence from secreted Gluc in supernatant 24 hours after transfection of HEK293 cells; circular RNA encoding Gluc with the named IRES (UTR truncated to 675 nt).
Type: cell-based, human

Molecule	Expression
B1	6.05E+06
B2	6.37E+06
B3	7.37E+05
B4	1.47E+05
B5	1.24E+05
B6	9.00E+04
B7	3.11E+06
B8	3.67E+07
B9	1.06E+05
B10	9.30E+07
B11	9.32E+04
